1 molecule from patent US11851495 (Boehringer Ingelheim, dated 2023) can be followed below.

The assay addresses T1, cadherin-17 (CDH17) (human, UniProt Q12864 23-832).
T1 construct: whole, on cells; not detected on HepG2 cells
Briefly: flow cytometry (FACS) on Colo-205 cells, antibody as primary reagent. As to the method: TRAILR2 and CDH17 protein surface expression on the Colo-205 cells was analyzed as follows. Cells were detached using Accutase (Sigma A6964) and washed twice with FACS buffer (PBS, Gibco 14190; 3% FCS, Gibco 26140; and 0.09% NaN_3, Sigma Aldrich S2002).
After seeding the cells, the plate was centrifuged at 1200 rpm for 5 minutes and the supernatant were discarded. Cells were then incubated for 60 min at 4° C. with 100p/well of the primary antibody appropriated dilution. Cells were washed twice with FACS buffer and 100p/well of the appropriated dilution of secondary/conjugated antibodies was added. Cells with secondary antibodies were incubated for 45 min at 4° C. in the dark. After two washes with FACS buffer, cells were resuspended in 100p FACS buffer per well and analyzed in a FACS Canto (BD Biosciences).
Example 12: Detection of CDH17 Surface Expression Using Newly Generated CDH17 Antibodies In FIG. 13 is shown how the newly generated anti-CDH17H2 antibody (comprising a VH of SEQ ID NO: 116 and a VL of SEQ ID NO: 117 and an IgG1 sequence of SEQ ID NO: 121) is able to detect CDH17 protein surface expression. FACS analysis was performed as described in Example 6. The newly generated anti-CDH17H2 antibody was used as primary antibody for detection, followed by a secondary antibody rabbit anti-mouse IgG PE (Dako, R0439). […]
On the technique in general: In flow cytometry, cells or beads pass a laser one at a time.

B1: anti-CDH17H2 antibody (antibody, V domains shown)
VH: QVQLVQSGAEVKKPGSSVKVSCKVSGYTFTDHTIHWMKQRPGQGLEWIGYIYPRDVITQYNEKFKGKVTLTADKSTSTAYMELSSLRSEDTAVYLCARWGYFYGSRSYYFDYWGQGTTVTVSS
VL: DIQMTQSQSSLSASVGDRVGITCKASQNVGTAVAWYQQKPGKAPKLLIYSASNRYTGVPSRFSGSGSGTDFTLTISSLQPKDFATYFCQQYSSYPWTFGQGTKLEIK
notes: also called parental CDH17 antibody
Regarding B1, the binding result is listed as “binds”.
